Reference: patent US20220143213

Columns and labels:
[1] = biological target: human intravenous immunoglobulin (IVIG)
[2] = biological target: IgG present within primate serum
[3] = biological target: IgG present within human serum
[4] = biological target: IgG present within mouse serum

Row | Protein | IVIG cleavage in vitro, reducing SDS-PAGE with Coomassie stain [1] | IgG cleavage, reducing SDS-PAGE with Coomassie stain [2] | IgG cleavage, reducing SDS-PAGE with Coomassie stain [3] | IgG cleavage, reducing SDS-PAGE with Coomassie stain (Donors 1-5) [3] | IgG cleavage, reducing SDS-PAGE with Coomassie stain [4] | IgG cleavage, SDS-PAGE (IgG from dog serum) | IgG cleavage, SDS-PAGE with Coomassie stain (heavy chain cleavage product ~31 kDa) [2] | IgG cleavage, SDS-PAGE with Coomassie stain (heavy chain cleavage product ~31 kDa) [3]
1 | recombinant IdeZ (NEB P0770S or Genscript) (protein) MKTIAYPNKPHSLSAGLLTAIAIFSLASSNITYADDYQRNATEAYAKEVPHQITSVWSKGVTPLTPEQFRYNNEDVIHAPYLAHQGWYDITKAFDGKDNLLCGAATAGNMLHWWFDQNKTEIEAYLSKHPEKQKIIFNNQELFDLKAAIDTKDSQTNSQLFNYFRDKAFPNLSARQLGVMPDLVLDMFINGYYLNVFKTQSTDVNRPYQDKDKRGGIFDAVFTRGDQTTLLTARHDLKNKGLNDISTIIKQELTEGRALALSHTYANVSISHVINLWGADFNAEGNLEAIYVTDSDANASIGMKKYFVGINAHGHVAISAKKIEGENIGAQVLGLFTLSSGKDIWQKLS | IdeZ cleaved human IVIG in vitro | IgG present within serum was cleaved by IdeZ | IgG present within serum was cleaved by IdeZ | IdeZ also cleaved IgG in serum samples from additional human patients (Donors 1-5) | IgG present within serum was cleaved by IdeZ | IdeZ can cleave IgG from dog serum |  | 
2 | recombinant GST-IdeZ (N-terminally GST tagged IdeZ fusion) (protein) MKTIAYPNKPHSLSAGLLTAIAIFSLASSNITYADDYQRNATEAYAKEVPHQITSVWSKGVTPLTPEQFRYNNEDVIHAPYLAHQGWYDITKAFDGKDNLLCGAATAGNMLHWWFDQNKTEIEAYLSKHPEKQKIIFNNQELFDLKAAIDTKDSQTNSQLFNYFRDKAFPNLSARQLGVMPDLVLDMFINGYYLNVFKTQSTDVNRPYQDKDKRGGIFDAVFTRGDQTTLLTARHDLKNKGLNDISTIIKQELTEGRALALSHTYANVSISHVINLWGADFNAEGNLEAIYVTDSDANASIGMKKYFVGINAHGHVAISAKKIEGENIGAQVLGLFTLSSGKDIWQKLS | IdeZ cleaved human IVIG in vitro |  |  |  |  |  | GST-IdeZ cleaved IgG present within human and primate serum | GST-IdeZ cleaved IgG present within human and primate serum
